The values that follow come from patent US7026443.

The chains are these.
B1: HPV16 E1 454 … (peptide)
peptide: MSFLTALKR
modifications: not checked
B2: HPV16 E1 277 … (peptide)
peptide: LLVRYKCGK
modifications: not checked
B3: HPV16 E1 403 … (peptide)
peptide: KDCATMCRHY
modifications: not checked
B4: HPV16 E1 403 … (peptide)
peptide: KDCATMCRH
modifications: not checked
B5: HPV16 E1 216 … (peptide)
peptide: GVSFSELVR
modifications: not checked
B6: HPV16 E1 222 … (peptide)
peptide: LVRPFKSNK
modifications: not checked
B7: HPV16 E1 305 … (peptide)
peptide: MMIEPPKLR
modifications: not checked
B8: HPV18 E6 32 CVYCKTVL (peptide)
peptide: CVYCKTVL
modifications: not checked
B9: HPV16 E6 peptide … (position 94, 10 amino acids) (peptide)
peptide: TLEQQYNKPL
modifications: not checked
B10: HPV18 E1 546 peptide … (peptide)
peptide: ALDGNPISI
modifications: not checked
B11: HPV16 E1 556 … (peptide)
peptide: QLKCPPLLI
modifications: not checked
B12: HPV16 E1 … (position 459) (peptide)
peptide: ALKRFLQGI
modifications: not checked
B13: HPV18 E6 32 … (peptide)
peptide: CVYCKTVLEL
modifications: not checked
B14: HPV16 E1 392 peptide … (peptide)
peptide: FLKSNSQAKI
modifications: not checked
B15: HPV18 E6 peptide … (position 111) (peptide)
peptide: PLNPAEKLRHL
modifications: not checked
B16: HPV16 E1 311 … (peptide)
peptide: KLRSTAAAL
modifications: not checked
B17: HPV16 E1 … (position 259) (peptide)
peptide: CLYLHIQSL
modifications: not checked
B18: HPV18 E7 peptide DLLCHEQL (position 24) (peptide)
peptide: DLLCHEQL
modifications: not checked
B19: HPV18 E1 325 peptide … (peptide)
peptide: ALYWYRTGI
modifications: not checked
B20: HPV31 E1 372 peptide … (SEQ ID NO: 4704) (peptide)
peptide: FLKSNSQAKI
modifications: not checked
B21: HPV16 E1 254 … (peptide)
peptide: LLQQYCLYL
modifications: not checked
B22: HPV16 E6 52 … (peptide)
peptide: FAFRDLCIV
modifications: not checked
B23: HPV16 E1 … (position 259) (peptide)
peptide: CLYLHIQSLA
modifications: not checked
B24: HPV16 E1 501 peptide … (peptide)
peptide: FVNSKSHFWL
modifications: not checked
B25: HPV18 E6 peptide … (position 54) (peptide)
peptide: VVYRDSIPHA
modifications: not checked
B26: HPV18 E1 peptide … (position 452, 10 amino acids) (peptide)
peptide: FLRYQQIEFI
modifications: not checked
B27: HPV18 E7 peptide … (position 22, 10 amino acids) (peptide)
peptide: PVDLLCHEQL
modifications: not checked
B28: HPV18 E6 29 … (peptide)
peptide: EITCVYCKTV
modifications: not checked
B29: HPV18 E6 peptide … (position 43) (peptide)
peptide: EVFEFAFKDL
modifications: not checked
B30: HPV16 E6 peptide … (position 21, 10 amino acids) (peptide)
peptide: QLCTELQTTI
modifications: not checked
B31: HPV18 E1 peptide … (position 508, 10 amino acids) (peptide)
peptide: FVNSTSHFWL
modifications: not checked
B32: HPV18 E1 peptide … (position 463, 9 amino acids) (peptide)
peptide: FLGALKSFL
modifications: not checked
B33: HPV18 E1 339 peptide … (SEQ ID NO: 3614) (peptide)
peptide: VMGDTPEWI
modifications: not checked
B34: HPV33 E1 peptide … (position 385, 10 amino acids) (peptide)
peptide: FLKSNSQAKI
modifications: not checked
B35: HPV16 E1 266 … (peptide)
peptide: SLACSWGMVV
modifications: not checked
B36: HPV18 E1 peptide … (position 265, 10 amino acids) (peptide)
peptide: FILYAHIQCL
modifications: not checked
B37: HPV31 E1 peptide … (position 291, 9 amino acids) (peptide)
peptide: KLRSTAAAL
modifications: not checked
B38: HPV16 E1 490 … (peptide)
peptide: LMKFLQGSVI
modifications: not checked
B39: HPV16 E1 … (position 318) (peptide)
peptide: ALYWYKTGI
modifications: not checked
B40: HPV16 E1 266 … (peptide)
peptide: SLACSWGMV
modifications: not checked
B41: HPV16 E6 34 … (peptide)
peptide: ILECVYCKQQL
modifications: not checked
B42: HPV18 E6 peptide … (position 97) (peptide)
peptide: GLYNLLIRCL
modifications: not checked
B43: HPV18 E7 peptide … (position 88, 10 amino acids as printed) (peptide)
peptide: QLFLNTLSFV
modifications: not checked
B44: HPV16 E7 peptide … (position 75, 9 amino acids) (peptide)
peptide: DIRTLEDLL
modifications: not checked
B45: HPV18 E6 peptide … (position 47) (peptide)
peptide: FAFKDLFVV
modifications: not checked
B46: HPV16 E1 … (position 539) (peptide)
peptide: ALDGNLVSM
modifications: not checked
B47: HPV18 E7 peptide … (position 93, 10 amino acids) (peptide)
peptide: TLSFVCPWCA
modifications: not checked
B48: HPV16 E7 peptide … (position 85, 9 amino acids) (peptide)
peptide: GTLGIVCPI
modifications: not checked
B49: HPV45 E7 peptide … (position 94, 10 amino acids) (peptide)
peptide: TLSFVCPWCA
modifications: not checked
B50: HPV16 E1 356 peptide … (peptide)
peptide: ELSQMVQWA
modifications: not checked
B51: HPV16 E6 peptide … (position 21, 9 amino acids) (peptide)
peptide: QLCTELQTT
modifications: not checked
B52: HPV18 E6 29 … (peptide)
peptide: EITCVYCKT
modifications: not checked
B53: HPV18 E6 peptide … (position 13) (peptide)
peptide: KLPDLCTEL
modifications: not checked
B54: HPV18 E6 peptide … (position 40) (peptide)
peptide: ELTEVFEFA
modifications: not checked
B55: HPV45 E6 peptide … (position 13, 9 amino acids) (peptide)
peptide: KLPDLCTEL
modifications: not checked

The first assay deals with HLA-A*0301 (human).
Conditions: not given
As to B1, the binding affinity ratio (IC50 of standard peptide / IC50 of test peptide) came out at 0.087.
Regarding B2, the binding affinity ratio (IC50 of standard peptide / IC50 of test peptide) is 0.0043.
As for B3, the binding affinity ratio (IC50 of standard peptide / IC50 of test peptide) (ratio to standard peptide) was 0.0005.
For B4, the binding affinity ratio (IC50 of standard peptide / IC50 of test peptide) (ratio to standard peptide) amounted to 0.0011.
On the same count and under the same terms, under B5 stands 0.0011.
As to B6, the binding affinity ratio (IC50 of standard peptide / IC50 of test peptide) came out at 0.07.
The same measure, in the same setting: the same measure for B7: 0.001.

Another assay concerns the target HLA-A*1101 (human).
Conditions: not given
As to B1, the binding affinity ratio (IC50 of standard peptide / IC50 of test peptide) (ratio to standard peptide) stood at 0.098.
Still for that read-out and setting: the same measure for B2: 0.0033.
Consider B3, for which the relative binding ratio (IC50 of standard peptide / IC50 of test peptide) was 0.0002.
The same measure, in the same setting: the same measure for B4: 0.0002.
As to B5, the relative binding ratio (IC50 of standard peptide / IC50 of test peptide) was 0.018.
For B6, the binding affinity ratio (IC50 of standard peptide / IC50 of test peptide) (ratio to standard peptide) was determined as 1.8.
On the same count and under the same terms, under B7 stands 0.0086.

The target in another assay is HLA-A*0201 (human).
Conditions: not given
Turning to B8, the binding affinity ratio (IC50 of the standard peptide / IC50 of the test peptide) was determined as 0.0002.
B9: the relative binding ratio (IC50 of standard peptide / IC50 of test peptide) is 0.0001.
With B10, the relative binding ratio (IC50 of standard peptide / IC50 of test peptide) (ratio to standard peptide) worked out at 0.021.
As for B11, the relative binding ratio (IC50 of standard peptide / IC50 of test peptide) (ratio to standard peptide) was 0.0049.
For the molecule B12, the relative binding ratio (IC50 of standard peptide / IC50 of test peptide) turned out to be 0.0062.
With B13, the binding affinity ratio (IC50 of the standard peptide / IC50 of the test peptide) came to 0.0001.
B14: the relative binding ratio (IC50 of standard peptide / IC50 of test peptide) turned out to be 0.0011.
As to B15, the relative binding ratio (IC50 of standard peptide / IC50 of test peptide) was found to be 0.0001.
Regarding B16, the relative binding ratio (IC50 of standard peptide / IC50 of test peptide) came out at 0.0003.
The same measure, in the same setting: the same measure for B17: 0.076; for B18: 0.0001.
Take B19: the relative binding ratio (IC50 of standard peptide / IC50 of test peptide) (ratio to standard peptide) came to 0.0032.
The same measure, in the same setting: the same measure for B20: 0.0011.
Take B21: the relative binding ratio (IC50 of standard peptide / IC50 of test peptide) worked out at 0.1.
Turning to B22, the binding affinity ratio (IC50 of standard peptide / IC50 of test peptide) worked out at 0.051.
Regarding B23, the relative binding ratio (IC50 of standard peptide / IC50 of test peptide) was 0.0032.
B24: the relative binding ratio (IC50 of standard peptide / IC50 of test peptide) is 0.0015.
B25: the relative binding ratio (IC50 of standard peptide / IC50 of test peptide) came to 0.0003.
Turning to B26, the binding affinity ratio (IC50 of the standard peptide / IC50 of the test peptide) is 0.0025.
Take B27: the relative binding ratio (IC50 of standard peptide / IC50 of test peptide) (ratio to standard peptide) is 0.0001.
B28: the binding affinity ratio (IC50 of the standard peptide / IC50 of the test peptide) worked out at 0.0002.
In the case of B29, the relative binding ratio (IC50 of standard peptide / IC50 of test peptide) came to 0.0009.
For the molecule B30, the relative binding ratio (IC50 of standard peptide / IC50 of test peptide) came out at 0.0012.
On to B31, for which the binding affinity ratio (IC50 of the standard peptide / IC50 of the test peptide) was determined as 0.062.
The same measure, in the same setting: the same measure for B32: 0.045.
Regarding B33, the relative binding ratio (IC50 of standard peptide / IC50 of test peptide) was determined as 0.007.
Regarding B34, the relative binding ratio (IC50 of standard peptide / IC50 of test peptide) (ratio to standard peptide) is 0.0011.
Consider B35, for which the relative binding ratio (IC50 of standard peptide / IC50 of test peptide) (ratio to standard peptide) was found to be 0.13.
In the case of B36, the binding affinity ratio (IC50 of the standard peptide / IC50 of the test peptide) is 0.032.
Regarding B37, the relative binding ratio (IC50 of standard peptide / IC50 of test peptide) (ratio to standard peptide) was 0.0003.
For B38, the relative binding ratio (IC50 of standard peptide / IC50 of test peptide) worked out at 0.0003.
On the same count and under the same terms, the same measure for B39: 0.0019.
As to B40, the relative binding ratio (IC50 of standard peptide / IC50 of test peptide) (ratio to standard peptide) amounted to 0.082.
B41: the binding affinity ratio (IC50 of standard peptide / IC50 of test peptide) was found to be 0.0004.
As to B42, the relative binding ratio (IC50 of standard peptide / IC50 of test peptide) was 0.0036.
As to B43, the relative binding ratio (IC50 of standard peptide / IC50 of test peptide) (ratio to standard peptide) was found to be 0.11.
On to B44, for which the relative binding ratio (IC50 of standard peptide / IC50 of test peptide) amounted to 0.0003.
In the case of B45, the relative binding ratio (IC50 of standard peptide / IC50 of test peptide) was 0.085.
As to B46, the relative binding ratio (IC50 of standard peptide / IC50 of test peptide) is 0.027.
Turning to B47, the relative binding ratio (IC50 of standard peptide / IC50 of test peptide) (ratio to standard peptide) turned out to be 0.0027.
With B48, the relative binding ratio (IC50 of standard peptide / IC50 of test peptide) was found to be 0.021.
Turning to B49, the relative binding ratio (IC50 of standard peptide / IC50 of test peptide) (ratio to standard peptide) amounted to 0.0027.
On to B50, for which the relative binding ratio (IC50 of standard peptide / IC50 of test peptide) was determined as 0.0003.

The same assay, now with this note: remark: other sources report otherwise.
With B51, the relative binding ratio (IC50 of standard peptide / IC50 of test peptide) came to 0.0001.
As for B52, the binding affinity ratio (IC50 of the standard peptide / IC50 of the test peptide) came out at 0.0001.
B53: the relative binding ratio (IC50 of standard peptide / IC50 of test peptide) stood at 0.0035.
Same read-out and setting: under B54 stands 0.0012; under B55, 0.0035.
